Experimental findings from the nanobody polyreactivity screen of Harvey et al. (2022) are described below.

The nature of this series: yeast display, Sf9 membrane polyspecificity reagent, FACS + sequencing; frameworks hold sequencing errors. Summed up: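 A nanobody's polyreactivity label depends on the gate it was sorted from. Yeast display cells were stained with 10% biotinylated, detergent-solubilized Sf9 membrane reagent for 1 hour at 4 °C, enriched on streptavidin microbeads and sorted by FACS. The low and high (top ~1%) gates were set on anti-HA fluorescence for expression and streptavidin fluorescence for reagent binding.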
As to “QVHLVESGGALVQAGGSLRLSCAASGSTFWFYAMLWYRQAPGKERELVAAITRSAGSTYYADSVKGRFTISRDNAKYTVFLQMNSLKPEDTAVYYCAAQRESLYGGFDSWGQGTQVTVSS”, the “polyreactivity (PSR sort gate)” value was “low polyreactivity”.

Consider “QVHLVESGGALVQAGGSLRLSCAASVIVFKRYAMGWYRQAPGKEREFVATISYTGGRTYYADSVKGRFTISRDNAKNTVYFQMNSLKPEDTAGYYCATLYRSSKHQPLDYWGQGTQVTVSS”, for which the “polyreactivity (PSR sort gate)” value is “high polyreactivity”.

Consider “QVHLVESGGALVQAGGSLRLSCASSGRTFGWNVMGWYRQAPGKERELVAAISGSGGSTYYADSLKGRFTISRDNAKNTVYLQMNSLKPEDTAVYYCAALYGPGREYDYWGQGTQVTVSS”, for which the “polyreactivity (PSR sort gate)” value is “low polyreactivity”.

As to “QVHLVESGGCLLQAGGSLRLSCAASGSIFIINAMGWYRQAPGKERELVAAINNGVNTYYADSVKVRFTISRDNAKNTVYLQKNSLKPEDTAVYYCAADPYFYYYGYDYWGQGTQVTVSS”, the “polyreactivity (PSR sort gate)” value is on record as “low polyreactivity”.

Consider “QVHLVESGGCLVQAGGSLRLSCAASGRTFDFYAMGWYRQAPGKERELVATITSGTSTNYADSVKGRFTISRDNAKNTVYLQMYRLKPEDTAVYYCNAGGVYPRCTFLEQGYEMDYWGQGTQVTVSS”, for which the “polyreactivity (PSR sort gate)” value is “low polyreactivity”.

For the sequence “QVHLVESGGCLVQARGSLRLSCAASGRTIQLYAMGWYRHPHGKVMELVAAITWSSGRTYYADSVKGRFTISRDNANNTVYLQMNRLKQEDTAVYYCNAPRGGRNTVYYWGQGTQVTVSS”, the “polyreactivity (PSR sort gate)” value is on record as “high polyreactivity”.

With “QVHLVESGGGFVQAGGSLRVSCAASGRSCGYNAMGWYRQAPGKERELVAAITSGGSTYYADSVKGRFTISRDNAKHTVYLQMNSLKPEDTAVYYCAARFSYWKTKRAYDWGQGTQVTVSS”, the “polyreactivity (PSR sort gate)” value is “high polyreactivity”.

Turning to “QVHLVESGGGIVQAGGRLRLSCAASGLIFYHYAMGWYRQAPGKEREFVAAITVSGGSTYYADSVKGRFTITRDNAKNTVYLQMNSLKPEDSAVYYCNARSVVWWASGDYWGQGTQVTVSS”, the “polyreactivity (PSR sort gate)” value is reported as “low polyreactivity”.

As for “QVHLVESGGGIVQAGVSLRLSCAASGRIFYGYTMGWYRQAPGKERELVASIDYSTGRTYYADSVKGRFTISRDNAKYTVYLQMNSLKPEDTAVYYCNADPNYSFLRYDYWGQGTQVTVSS”, the “polyreactivity (PSR sort gate)” value is reported as “high polyreactivity”.

As to “QVHLVESGGGKVQAGGSLRLSCAASGGTFYQYAMGWYRQAPGKESELVAAITRSGGRTYYADSVKGRFTISRDNAKNTVYFQMNSLKPEDTAVYYCAAEDVGPPDFYYWGQGTQVNVSS”, the “polyreactivity (PSR sort gate)” value is “high polyreactivity”.

For “QVHLVESGGGLDQAGGSLRLRCAASGRIFRHYAMGWYRQAPGTERELVAAYRWSCGSTYYADSEKGRFTISRDNAKNTVYLQMNSLKPEDNAVYYCATRDAVGHRPSGPYQLYDYWGQGTQVTVSS”, the “polyreactivity (PSR sort gate)” value was “low polyreactivity”.

As for “QVHLVESGGGLDQAGGSLRLSCAASGSIYGPYAMGWYRQAPGKERELVAAIRSGGSTNYADSVKGRFTITRDNAKNTVYLLMTSLKPEDTAVYYCAAEYWGYPYDYWGQGTQVTVSS”, the “polyreactivity (PSR sort gate)” value is on record as “low polyreactivity”.

Turning to “QVHLVESGGGLFQAGGSLRLSCAASGSTFTDYDMGWYRQAPGKDRELVASITSGGSTNYADSVKGRFTISRDNAKNTVYLQMNSLKPEDTAVYYGAAADADRKYDYWGQGTQVTVSS”, the “polyreactivity (PSR sort gate)” value was “low polyreactivity”.

In the case of “QVHLVESGGGLFQAGGSLRLSFAATGLTFSPYARGWYRHGPGKERELVASITNGGRTYYADSVKGRFTISRDNAKITVYLQMNSLKPEDTAVYYCAAYPRGARRLDYWGQGTQVTVSS”, the “polyreactivity (PSR sort gate)” value was “high polyreactivity”.

For “QVHLVESGGGLFQEGGSLRLSCAPSGSNFATYTMGWYRQAPGKERELVAAIRRSGGSTYYADSVKGRFTLSRDNAKNTVYLLMNSLKPEDTEVYYCAAKHYYYSPYVRYDPPPGYYWGQGTQVTVSS”, the “polyreactivity (PSR sort gate)” value is “high polyreactivity”.

Regarding “QVHLVESGGGLVHAGGSLRLSCAASGFTLAWNAMGWYRQAPGKETELVATISRYGSSTSYADSVKGRFTISRDNSKNTVYLQMNSLKPEDTAVYYCAADRYTFRMDYWGQGTQVTVSS”, the “polyreactivity (PSR sort gate)” value is “high polyreactivity”.

Take “QVHLVESGGGLVKAGGSLRLSCAASGRTFPYNAMGWYRQAPGKERELVAAISSGGSTNYADSVKGRFTISRDNAKNTVYLQMNSLKPEDTAVYYCATKYQRRPYRYYYWGQGTQVTVSS”: the “polyreactivity (PSR sort gate)” value is listed as “low polyreactivity”.

For “QVHLVESGGGLVLAGGSLRLSCAASGIIFTYAMGWYRHAPGNERELVAAIDWRGGRTYYADSLKGRFTISRDNAKNTFYLQMNSLKPEDTAVYYCAPRLPGGTYYWGQGTQVTESS”, the “polyreactivity (PSR sort gate)” value was “high polyreactivity”.

On to “QVHLVESGGGLVLAGGSLRLSCAASGSTFIWNAMGWYRQAPGKERELVAAIRRGSSTNYADSVKGRFTISRDNAKNTVYLQMNSLYPEDTAVYYCAKKPVTTDVSSETFFLEMDYWGQGTQVTVSS”, for which the “polyreactivity (PSR sort gate)” value is listed as “low polyreactivity”.

With “QVHLVESGGGLVQAAGSLRLSCAASGRTFPYNAKGWYRQAPGKERELVAAISSGGSTNYADSVKGRFTISRDNAKNTVYLQMNSLKPEDTAVYYCATKYQRRPYRYYYWGQGTQVTVSS”, the “polyreactivity (PSR sort gate)” value was “low polyreactivity”.

As to “QVHLVESGGGLVQAGCSLRLICAASRYIFGYYAMGWYRQAPGKERELVAAISTDGSTDYADSVKVRFTISRYNANNTVDLQMNRLKPEDSALYYCAKELFIVTNGVYIYDSWGEGTQVTVSS”, the “polyreactivity (PSR sort gate)” value is reported as “low polyreactivity”.

For “QVHLVESGGGLVQAGGILLLSCAASGYDMGWYRQAPGKERELVAAISRGGSTSYADSVKGRFTISRDNAKNTVYLQMNSLKPEDTAVYYCAARYGSYRVGYDYWGQGTQVTVSS”, the “polyreactivity (PSR sort gate)” value is “low polyreactivity”.

As to “QVHLVESGGGLVQAGGILRLSCAASGFIYTKYTMGSYRQAPGKEREMVAAITGRGTSTYADSVKGRFTISRDNAKNSVYLQMNRLKPEDTAVYYCASVGWFADFMFSDINGYYWGQGTEVTVSS”, the “polyreactivity (PSR sort gate)” value is listed as “low polyreactivity”.

For “QVHLVESGGGLVQAGGILRLSCAASGRTFRRYAMGWYRQAPGKERELVAVISGGGTYYADSVKGRFTISRDNAKNTVYLQMNSLKPEDTAVYYCNARSYQSARVRGGYWGQGTQVTVSS”, the “polyreactivity (PSR sort gate)” value is reported as “high polyreactivity”.

On to “QVHLVESGGGLVQAGGILRLSSPASGSISGWYAMGWSRQEPGKERELVSDMTRGGRTYYADSVKGRFTISRDNAKNTVYLQMNSLKPEDTAVYYCASPSPSYYYRSGWGSYYSWGLGTQVTVSS”, for which the “polyreactivity (PSR sort gate)” value was “high polyreactivity”.

As to “QVHLVESGGGLVQAGGILRLSWASSGFIFPRYAMGSYRQAPGKERELVAGITSRGTGTYYADSVKGRFTISRDNAKNTVYLQMNSLKQEDTAVYYCARLSTKPLPYDDWGQGTQVTVSS”, the “polyreactivity (PSR sort gate)” value is given as “high polyreactivity”.

Consider “QVHLVESGGGLVQAGGILRVSCAASGRIFRTYVMGWYRQAPGKERELVAAITQRGGTTYYADSVKRRFTISRDNAKNTVYLQMNSLKPEDTAVYYCATRYRYYTERDYWGLGTQVTVSS”, for which the “polyreactivity (PSR sort gate)” value was “high polyreactivity”.

On to “QVHLVESGGGLVQAGGNLRLICAASGSIFSDYTIGWYRQAPGKERELVAVITLSSGSTYFADSVKGRFTISRDNAKNTDYLQMNSLKPEDTAVYYCAADGWYYFGSGVFEYDYWRQGTQVTVSS”, for which the “polyreactivity (PSR sort gate)” value was “low polyreactivity”.

For “QVHLVESGGGLVQAGGRLRLSCAASGSIFGYNAMGWYRQAPGKERELVAAISSTGGSTYYADSVKGRFTISRDNAKNTVYLQMNSLYPEDTAVYYCAKRGQSYFKGYDYWGQGTQVTVSS”, the “polyreactivity (PSR sort gate)” value is listed as “low polyreactivity”.

With “QVHLVESGGGLVQAGGSHRITCAASGITFVGNARGWYRQAPGKERELVAAIRWSSGRTYYADSVKGRFTISRDNAKNTVYLQMNSLKPEDTAVYYCATDYHYSQYYRFYYWGQGTQVTVSS”, the “polyreactivity (PSR sort gate)” value is reported as “high polyreactivity”.

“QVHLVESGGGLVQAGGSLLLSCAASGGTFAAYAMGWYRQAPGKERELVAAIDSGGTTKYADSVKGRFTISRDNAKNTVYLQMSCLKPEDTAVYYCAAVYRITFGYHTSRAFDYWGQGTQVTVSS”: the “polyreactivity (PSR sort gate)” value is “low polyreactivity”.

Take “QVHLVESGGGLVQAGGSLRISCAASGNIFPNNGMGWNRQAPGKERELVAAISFNGDDTYADSVKGRFTISRDNAKNTVYLKMNSLNPEDTAVYYCNAVPGADQFSAPVITTAEDYWGQGTQVTVSS”: the “polyreactivity (PSR sort gate)” value was “low polyreactivity”.

Regarding “QVHLVESGGGLVQAGGSLRISCAASGRTFYIYAMGWYRQAPGKERELVAAISWGSGSTYYADSVKGRFTISRDNAKNTVYLQMNSLKPEDTAVYYCAADYAYPSEWTYDYWGQGTQVTVSS”, the “polyreactivity (PSR sort gate)” value was “low polyreactivity”.

“QVHLVESGGGLVQAGGSLRLNCAASGRTFTEYAMGWYTPAPGKERELVAAITTVGSTYYADSVKGRFTISRDNAKNTVDIQMNSQKPEDTAVYYCDVERDYWTKASYYWGQGTQVTVSS”: the “polyreactivity (PSR sort gate)” value is listed as “low polyreactivity”.

For “QVHLVESGGGLVQAGGSLRLRCAASGFILGAYAMGWYRQAPGKERELDAAISYSGGRTYYADSVKGRFTISRDNAKNTVYLQMNSQNPEDTAVYYCAADWYYGYFFSVAGEHEYCGQGTQVTVSS”, the “polyreactivity (PSR sort gate)” value is on record as “high polyreactivity”.

As for “QVHLVESGGGLVQAGGSLRLSCAASASIFRYYAMGRYRQAPGKERELVATISSGGRTYYADSVKGRFTISRDNAKNTVYLQMNSLKPEDPAVYYCAAVRLTWTAKYNYWGQGTQVTVSS”, the “polyreactivity (PSR sort gate)” value is “high polyreactivity”.

With “QVHLVESGGGLVQAGGSLRLSCAASGFIFIRYAMGWYRQAPGKERELVAAINGGGSSTYYADSVKGRFTISRDNAKYTVYLQMNSLKPEDTAVDYCDADTDSWWYYLYYGDGFDYWGQGTQVTVSS”, the “polyreactivity (PSR sort gate)” value was “high polyreactivity”.

Consider “QVHLVESGGGLVQAGGSLRLSCAASGFIFISNSMGCYRQEPGKERELVARISDTDRTHYADSVKGRFTISRDNAKNTVYLQMNSQNPEDTAVYSCATDQSLLDKVYYDVQYDFWGQGTQVTVSS”, for which the “polyreactivity (PSR sort gate)” value was “low polyreactivity”.

On to “QVHLVESGGGLVQAGGSLRLSCAASGFIFSYYAMGWYRQAPGKERELVAAISWTGGSTYYADSVKGRFTISRDNAKNTVYLQMNSLKPEDTAVYYCNKYYRAWLLWDYGYWGQGTQVTVSS”, for which the “polyreactivity (PSR sort gate)” value is listed as “high polyreactivity”.

For “QVHLVESGGGLVQAGGSLRLSCAASGFIFVRNAMGWYSQAPGKEREFVAAITRSGGSTYYADSVKVRFTISRDNAKNTVYLQMYSLKPEDTAVYYCAVLYHSRDSYTYRDEDYWGQGTQVTVSS”, the “polyreactivity (PSR sort gate)” value is listed as “low polyreactivity”.
